In assay [1] the target is human Kv1.3 (Homo sapiens) (UniProt P22001). The assay is described as follows: cell-based or functional assay.
Assay [2] addresses T1, cyno Kv1.3 (Macaca fascicularis).
T1 chain: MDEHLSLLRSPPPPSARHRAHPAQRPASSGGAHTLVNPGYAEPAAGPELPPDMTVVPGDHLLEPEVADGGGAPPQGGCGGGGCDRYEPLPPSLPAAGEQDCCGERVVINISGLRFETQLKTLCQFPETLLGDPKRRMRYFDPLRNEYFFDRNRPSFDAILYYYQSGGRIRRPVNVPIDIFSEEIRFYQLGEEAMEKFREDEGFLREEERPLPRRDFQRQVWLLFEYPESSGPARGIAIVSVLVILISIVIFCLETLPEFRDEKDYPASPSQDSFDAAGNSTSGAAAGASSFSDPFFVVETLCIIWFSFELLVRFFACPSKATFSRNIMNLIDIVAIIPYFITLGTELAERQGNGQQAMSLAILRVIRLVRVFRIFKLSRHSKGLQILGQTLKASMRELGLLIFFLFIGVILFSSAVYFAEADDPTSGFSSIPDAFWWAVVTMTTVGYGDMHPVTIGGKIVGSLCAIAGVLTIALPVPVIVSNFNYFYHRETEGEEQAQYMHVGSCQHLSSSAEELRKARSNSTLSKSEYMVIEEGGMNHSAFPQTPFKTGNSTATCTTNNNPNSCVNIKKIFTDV

Assay [3] concerns the target human Kv1.3 (Homo sapiens), P22001.
The target is the same in assay [4]. The source holds these as a separate data set.
Assay [5] has the same target. The assay is described as follows: cell-based or functional assay.
For assay [6] the target is unchanged. The assay is described as follows: cell-based or functional assay. This is another data set of the same source.
In assay [7] the target is T1, cyno Kv1.3 (Macaca fascicularis). The assay is described as follows: titration of radiolabeled margatoxin on CHO-cyKv1.3 cells.

Read-outs that look alike come from different tables or passages of the source.

B1: A0194020A06 (VHH, not shown: small tags and cut ends)
VHH: EVQLVESGGGLVQAGGSLGLSCSASGLLFSRNSAGWYRQAPGKRREFVARIRMGGSINYADSVKGRFTVSRDNAKNMMYLQMNDLKPEDTAVYFCSGWREGFYEYWGQGTLVTVSS
In assay [1], B1 returned an Average IC50, Kv1.3 current, IonFlux automated patch clamp, HEK293H cells of 13.4 nM; an IC50, CD25 read out, CCR7-CD45RA- T cells stimulated with anti-CD3 of 36 nM; an IC50, IFNγ read out, CCR7-CD45RA- T cells stimulated with anti-CD3 of 30 nM.
One may read the IC50 as the concentration that inhibits the measured activity by half. Higher therefore signals weaker potency in that assay. Broadly, the % inhibition is the change of the read-out against control, counted positive when it falls. Take RSCIDTIPKSRCTAFQCKHSMKYRLSFCRKTCGTC (modifications not checked) [ShK-1aJ (Smartox, #08SHK001), P29187 1-35]: the IC50 in assay [2] stood at 0.24 nM. For the same molecule, the % inhibition in assay [3] stood at 102%. Further, in assay [4], the IC50 (read off the curve) was 10 nM. Also, in assay [5], the IC50, CD25 read out, CCR7-CD45RA- T cells stimulated with anti-CD3 is 220 pM and the IC50, IFNγ read out, CCR7-CD45RA- T cells stimulated with anti-CD3 turned out to be 65 pM. In assay [6], this molecule came in with an Average IC50, Kv1.3 current, IonFlux automated patch clamp, HEK293H cells of 76 pM; an Average IC50, Kv1.3 current, IonWorks perforated patch clamp, CHL cells of 400 pM; an IC50, CD25 read out, CCR7-CD45RA- T cells stimulated with anti-CD3 of 270 pM; an IC50, CD25 read out, T cell activation assay of 730 pM. In addition, in assay [6], the IC50, CD25 read out, T cell activation assay, with 10 µM HSA was found to be 38 pM; the IC50, IFNγ production, T-cell activation assay was determined as 41 pM; the IC50, IFNγ read out, CCR7-CD45RA- T cells stimulated with anti-CD3 was 76 pM; the IC50, IFNγ read out, T cell activation assay came to 140 pM. Also, in assay [6], the IC50, IFNγ read out, T cell activation assay, with 10 µM HSA stood at 27 pM.

B2: A0194016B04 (VHH, not shown: small tags and cut ends)
VHH: EVQLVESGGGLVQAGGSLRLSCSASGLLFSVNSAGWYRQAPGKQRDFVARIRSGGSTNYADSVKGRFTISRDKATNTLYLQMNNLKPEDTAVYYCSSWRTEAYEYWGRGTLVTVSS
As to B2, in assay [1], the Average IC50, Kv1.3 current, IonFlux automated patch clamp, HEK293H cells was found to be 84 nM and the Average IC50, Kv1.3 current, IonWorks perforated patch clamp, CHL cells was 34 nM.
On to TIINVKCTSPKQCLPPCKAQFGQSAGAKCMNGKCKCYPH (modifications not checked) [unlabeled margatoxin (Alamone labs, Cat RTM-325), P40755 1-39], for which, in assay [2], the 50% inhibitory concentration (IC50) was determined as 0.24 nM. In assay [6], this molecule gave an IC50, IFNγ read out, CCR7-CD45RA- T cells stimulated with anti-CD3 of 94 pM.
By EC30 is commonly meant the concentration needed for an effect of 30%. Consider TIINVKCTSPKQCLPPCKAQFGQSAGAKCMNGKCKCYPH (modifications not checked) [125I-margatoxin (Perkin Elmer, NEX083), P40755 1-39], for which the 30% effect concentration (EC30) in assay [7] turned out to be 150 pM.
